Results reported in a protein production outcome set (Wang et al. 2014).

assay: label from the status in PepcDB records

With “MPQTSSVFRYPGGKTQLYSFVHHLLKINSITDISLEPFAGGAGIPLKLLIDNRINTVWINDYDKAIYSVWDTILNDPVALISLIESVPFDYHSGHKISPEFSISFWKKQKDIYLNNKNHQHSIELAFSTLFLNRTNTSGIITAGPLGGFKQNRKTQIYARFNKETLINKINLIHSFKSQIKLTRLNTLDMIPKIRNSVDPKNSFIFFDPPYFEQGKELYYSSFNEQGHKELANGILSLKQYHWITTYDTAPQIQEDYTMAKQKYEYSLNYSANNKNRGKTAEFMFASPVTRLSSFEKVDLTPLA” as the sequence, how does the protein production read?
Its protein production is “failed”.

For “MPQWRVRMHSGGLELALVLMLAAIVAVPVFKRFGLGAVLAYLVAGVVLGPDGAGVVQDAERISGAAEIGVVMLLFVIGLELSPARLKVMRHSVFGAGATQVLVTAVILGGLLMAAQLGWKSALIVGVALALSSTAVGLQLLAERKALSSDYGRLAFAILLFQDLIAIPLLAAIPLLGGSKNATLQWQDVAKAVAALALVIVCGRFVLRHLFNVVARTRMPEVFTASALLVVLGTAWIMQEAGLSASLGAFIAGVLLADSEFRHELESQIEPFEGLLLGLFFISVGMGIDLHRVVAEPWLIAAGVAILLVVKFSLLVGIGSVAKLPLRSSLMLGSVLWLGGEFAFVVFNEADRVGLLEPANHDRLVAIVGVSMALTPLLLLGMQRILNGPLRARAPKTDRPFDTIDAQTPKVLVAGMGRFGQVVARLLTARHVPFVALEHNPDTVEDLRRFGSQLYYGDPTRPELLRAAGAERIKVFVIAVDDPETNIKTVRLIRRLYPQATVLARARNRQHAWKLMDLGAEPFREVFASSLELSERVLTSLGLGEALAHDHVKRFRQHDEDLLRRQHLVYDDEAKVIQTSRDARADLMNLFEADVRADVDGEPAPTLRER”, which protein production is on record?
The protein production was “failed”.

With “MPRLAISRLWPMLTAVALLSPLATAQQGQTLRAGELTVTLTPTQPDSNGWYRAGRLELQGTDEGIRGVETSRLRGAVLGELSPDGRWLSVLGTGGGYVQLWNVATAERQFTFLAHDKKSYDARLAAFSPDSRRLVFYSYPNELSLWDTATGVRVKLLSDVRKGGWWTADADAVFSPDGKTFVVTGGGGGAQLFDTRTGDLLQTFDRPCQSFGPGSPGGFWRGAVGATFSADGKNVAVLYAGGAARLYGVAGAGALAKASWKLDNFKPSQMRFWAGKLTLNGRELSGKTPNGLSFTLTF” as the sequence, how does the protein production read?
The protein production was “failed”.

Which protein production does the source give for “MPRVDHGSPQAGPPAPCVGILLAGGQGRRFAAASGGQDKLLARLADGTAVAVRAAAALREATDAVVAVVRPESAVLAALLRGQGCHVLESEQAREGMGASLAAAARFLLAGQVPDMPERADVCLVALADMPWVRRDTLSAVRAAACADGITVPVHQGRRGHPVAFGRSLWGELAALRGDVGARELLRRHRVAAVEVDDPGVAADVDTPGDLAGDRALEHHHHHH” here?
Its protein production is “failed”.

Which protein production does the source give for “MPRYQATLLIELKKGILDPQGRAVEGVLKDLGHPVEEVRVGKVLEIVFPAENLLEAEEKAKAMGALLANPVMEVYALEALKELP” here?
Its protein production is “not failed”.

Which protein production does the source give for “MPSAEISSSTEAKQAATTVDVSYKTHVQTFGWQDWAANGASAGTTGLAKRLEAIQIKTSAPASQGGIRYRTHVQTYGWLDWVSDGASSGTTGEAKRLEAIQIELTGALATQYDVYYRVHAQTFGWLDWACNGASAGSAGYAKRLEAIQIVLVPKGGKAPGSTAAPYKELPPAVSYQSYLSGAWQNSVLDNAVSGTVGQAKQIEGIKISLQDKAVSFAGSSIQYRTYLQTYAWQDWTSNGGTSGKPGSGKRVEAVQIKLTGSIASSYDVYYRVHSQTFGWLDWACNGQSAGSAGYAKRIEAIQIVLVKKGGAAPGSTATPYKEAPPSVTYQTYISGGWQPTVADKATSGLAGQGKKTEGLRVSLKAGAQSLGNSSVKYRTYLQTYGWQSWVSNGASSAKAGSGKRMEAIEISLTGDISSQYDIYYRSYVTGYGWLGWACNGATSGTTDYAKPIEAVQAVLVKKGGAAPGSTSNAYLKPEVTGPFEISFSPSGASNFGGLVSIEPDHDVILVASAKGGAGGYQYRYRAELIGGSIQTLKDYSGSSSYTWRPNTPGRYKMYVDVKDSTGTVKTAMFQMSVGLSGIDVSEHQGTIDWKKVKAAGIDYAMIRAGFGWEEIDDQTDASLVQNVTGAKQAGLPFGLYHYSYADTVEEAKKEAEFLLDILEANNIAPSDLSYPIAFDIEEPDRLNVSQRRVNTDMVNAFCEIIRDAGYLPMVYASKTVIQDYLYYDEISANNIWMAAWTSTPNDTEIFDNCFPVDMWQYSESGTVDGINGRVDLNICYTTVFRDGSADTTQKGKVVVDAGSSLNVRKAPSVNADVVGSLYKDDIVTIISETSGWYQIVTSTGVSGYVSAEYIQKI” here?
Its protein production is “failed”.

With “MPSEKEILDALSKVYSEQVIQADDYFRQAIFELASQLEKEGMSSLLATKIDSLINQYILTHQFDAPKSIFDLSRLVKTKASHYKGTAISAIMLGSFLSGGPK” as the sequence, how does the protein production read?
Its protein production is “not failed”.

With “MPSGQEGLDKFHNLNKGKTMFMQRLITTLILVPLVLLAIFYAPSWILWGVVLVILLLAGMECFKLIPVDNLTVQACFLIFLLMCFWACGYFYSYWLSVGLLVWLLNGLAILTYPRSQNYWGYPIVVAIASLILLPLFTQSLMQISFLQQGKELLVYLLFLIWASDIGAYLTGKQWGKHKLIPKVSPGKSWEGVTGGVILAMIVATLGYYYFIPYSIYIWFGLALSTVVISIFGDLFISILKRRCQLKDTGNIIPGHGGILDRLDSLIAALPWFYFGLTYIPLGI” as the sequence, how does the protein production read?
Its protein production is “failed”.

For “MPSIKIRENEPFEIAIRRFKRACEKAGVLSEVRRREYYEKPTEERKRKAAAAIKRHLKKLSRERFALQNLRKGRPQQLEHHHHHH”, which protein production is on record?
The protein production was “not failed”.

For “MPSKQDVLLLDYWDQWAEAYRINGKSINTVYRYKLFRKHLKSRFDGRKLNSIRPIEWQKFINDFAAGKDRKEKTTRKRPRERSKDIVTKMNSYVRGMVKAAINERILFSDFTFGTKTSGVRSSGKVKVLEHHHHHH”, which protein production is on record?
Its protein production is “not failed”.

Which protein production does the source give for “MPSLCKLNPCIQTHKEVIMDNLITQLLFSASITGPICVMLLLGVLLKRIHLINDNFIEVASKLVFQVTLPAMLFLSIVNAKHDFSSSSHLIIYGLIANFVFFLFTIYSTRFAFKNKQNHGVIIQGGFRANTAIIALAYVANAYGNTGVALAAIYVASTTILYNIQAVIALTPKNENNKKQAVGIIIKTLTKNPLIISIVLGIICSLLSIPVPGMLSQAGQYFANMTLPLALLCAGGSLNLHSMKEESAATWFATSYKLILSPLFITSGGILVGFRGLELGLIFFMSAAPTAAASYVMARAMGGNAILAANIIAQTTVASLFTCTLGIFVLSSFNLI” here?
Its protein production is “failed”.

With “MPSLGEAPQDLQRSQERRRIERIFAQGGKGVASPHRFPGPLPMLQNIPTHVIAGPLGAGKTSLIRHLLSQRPAAERWAVLINEFGQIGLDAALLTRDEDGIALGEVAGGCLCCVNGAPFQVGLGRLLRKARPDRLLIEPSGLGHPAQLLKQLNEAPWKGVLAVQPCVLVLDAQALAAGKPLPRAQQDALSSAGLLVLNKDELLSDSDRLRVLEQLPDLPLFWTRHAALPLAELPGLGASAEAALEQSDIPQGLAQLPAVWSDPTLPICLSQSQEDGWSIGWRWHPSQQFDLVRVEHWLQNLDWRRAKLVLHSDQGWRSGNGLDNSPLNWLPSEWRRDSRLELIFSSPQDIAVLQASLDACRLLEHHHHHH” as the sequence, how does the protein production read?
Its protein production is “failed”.

With “MPSLPDRRRWLLDGARDTVPMMVGAAPFGLIFGTLAIAAGLSPAATAAMSLLVFAGSSQFIAVSLVSAGAALPVIWLTTFVVNLRHALYSATLLPYARPWPLAWRWPLAFWLTDETFAVVEHRFRSLGAEGGQWYWLGSSLSMYLNWQLWTLAGVALGRSVPGLDRLGLDFAMVATFAAIVAPQLKKRPTLAAALAAGAVALLARGLPYKLDLMLAALAGVAAGMMVERGQKREAA” as the sequence, how does the protein production read?
Its protein production is “failed”.

With “MPSLSVRGSLLLVCALAVTGCASLQSQDQINYAHCRMVGQASKAEKFDVVLQEADLCLEKNQLSQPMQSLVYWLKSDAYASFKRYPEAIAAKEKSIELGPKPDARAVLDLSRLYREAGNPQKALELVQSNLDNNLGEAGKGSGFNMPTYYHLGQTLYDLGRYREAAEAYSTGLLKQPDYAWAFYHRGLAYDKLGQTDDARADFAQFAKLVNQKYVEPQHQAKLAEYKIKLP” as the sequence, how does the protein production read?
The protein production was “failed”.

For “MPSPSGGWGCGGTWARGVDGARLFSIHHQAVRPNLSTISPPKEPPMIEVRHLCKSFARKPAVQDISFSIPAGEIVGYLGPNGAGKSTTIKVLTGLLVPDSGEVRVGGLVPWKQRRQHVARLGAVFGQRTTLWWDLPVRESLELLRHVYRVPAARFAENLAGFTELLELGPFLNTPARALSLGQRMRADLAAALLHDPELLFLDEPTVGLDVVAKERIREFVKAVNAERGVTVLLTTHDLGDVERLARRVMMIDTGRLLFDGPLAELQARYGGERELWVEFEKAPAQPALPGLTLLGQDGPRVRYGFSGAAAAPIAQVTALAPVRDLAVKEPEVEATIRRIYEGNLLGSRSVREGLEHHHHHH”, which protein production is on record?
Its protein production is “failed”.

Which protein production does the source give for “MPSPVLIAIDASPASSTLLTLARRYCRPGEHELHVLLAIDSTFAVHEQPAPYTAEELEEYPAACQEQQHADHAVAEAVRELQQAGFASQGCMVAGLPVEAIVTKAQELNCELIIMGHRHLSRLGRLLDPSISAKVIDRVDMPVLV” here?
Its protein production is “failed”.

For “MPSTVSSSRLGLAGLCILLAGQLLPMIDFSIVNVALDALAHSLGASETELELIVAVYGVAFAVCLAMGGRLGDNYGRRRLFVLGVALFAVASLLCGLAGSVWLLLVARALQGVGAALVVPQILATLHVSLSGHAHSRALAAYGAIGGLAFVVGQVLGGFLVSADIGGLGWRSVFLINLPICLGILLCSRRWVPETRAEHAARVDAPGTLLLAALILCLLLPLALGPSLHWSWPCALLLAAAVPLLAWLWRTELRQERRQAWPLLPPSLLRLPSIRFGLLLAILFFACWSGFMFALALALQAGAGLSPVQAGNAFIALGASYFVSALLTARVAARIGPVRLLLLGCVIQMCGLLGLMLTLQRVWPQPGILNLAPATLVIGFGQAFIVSSFFRIGLSEVPAAQAGAGSAMLATVQQASLGLGSALLGAVFAHRLERHGDYLEATQTTLAVEFVLMTLLLGATCLFYLRRVRTVPLRCDSPGN”, which protein production is on record?
Its protein production is “failed”.

For “MPTLFDDPLHQLPRPPRRVAAGVVHLPNFLGLAEQKALVAQARDLAREVVGTPLAMVRPKLKSGQMSVHMLHLGKYWASNPYRYVDVVDGFPVPPLPDSFVDLAHRALLSAGSLSNSLQSWSEAYRAEAALVNYYSPDASMGMHQDANEESEAPVISLSIGDTGIFRLGGTLNRNKPWTDIPLMSGDLIVFGGANRQAFHGIPSIEANTAPAGCGLKEGRINITIRQLALLEHHHHHH”, which protein production is on record?
Its protein production is “not failed”.

Which protein production does the source give for “MPTPFDVTILGGGLAGRLCAWQLAQTGVPPARIAVVERGARDGSGSAAYVAAAMLAPLAEAAVADRFVVELGLASLTLWRDWLPMLRTPVFFQQAGTLVVWHPADRGEASLFANHVRAATPPERIAADLRAVDAEGIGTLEPALAQRFSQGLYLAGEGQLDNRAVLDALATELEALGVQLRWNTAVADPHPQALAAAGLGARLVLDCRGLGAQPQWPQLRGLRGEVARIHAPDVTLTRPVRMLHPRYPIYIAPKPGHVYVIGATEIESDDMSPVSVRSTLELLSAAYAVHPAFGEARVLELCTQCRPTLPDHRPAIRWDGAGTLSVNGLYRHGYMIAPAVAQAAVAAAHALLDGRAIDAPASAWPGLFAAPASPEPVLPLEHHHHHH” here?
The protein production was “not failed”.

Which protein production does the source give for “MPTTRKENLQFGMMMCLGMVIVMTFYNLLMNETGGPIYIKEIALELLIGFIIALLIEISIVGPCAKKIVFMLPFDKSKKINIIVAMATTMVIGMVFFMSFFGMAMMHLHGGLQGASFVSIYFSIFIKNFIMAYPLQLIIMGPLVRFLFAKFVMKKKSFNVA” here?
Its protein production is “failed”.

For “MPTVAPLDIEGHVVSTHFLGDIPLFATAAGTIHRLDGGEKVTEAHDGLLTCIRDPYSATLLSGGEDGRVLRIGHDGSISEIANVPRKWVGVVAGGPQKAVAYGVGKSSFVRLSDCTVKEFKEERTVEAIAFAPKGLRIAVARYNGVTLHWVATAGDPVDLEWKGAHTGVTFSPDGKFLVTTMQENALHGWKMEATKGGMEARHMRMTGYPAKVKSISWSVKGKWLASSGAPAAIVWPFSGKDGPMGKAPEELGSRANIMATNVAFHPVEDVLAIGFIDGMILGVRLADGKEALLRRPGKGAITSMDWSATGNLLAFASEAGDCGIIDISALEHHHHHH”, which protein production is on record?
The protein production was “failed”.
